Measurements: patent US20100298220A1

Biological target: FGF receptor (on NIH 3T3 fibroblasts)
Experiment: cell-based or functional assay

Substance | EC50 of mitogenic activity, NIH 3T3 fibroblast proliferation, in the absence of heparin [ng/mL] | EC50 of mitogenic activity, NIH 3T3 fibroblast proliferation, in the presence of 10 U/ml heparin [ng/mL] | fold increase in mitogenic activity relative to wild-type FGF-1, in the absence of added heparin [fold]
Ala66→Cys mutant of human FGF-1 (140 amino acid form, His-tagged), oxidized form (from UniProt P05230 16-155) (ligand) | 5.43 | 0.36 | 10
wild-type human FGF-1, 140 amino acid form, with an additional amino-terminal six His tag (from UniProt P05230 16-155) (ligand) | 58.4 | 0.48 | 
